In article doi:10.1101/452482 (bioRxiv, 2018):
Like-named read-outs stand apart in the source and are kept apart here. One block for each molecule: values may come before it. Ends that are not written are not given here. fluorescein = fluorescein label at the N-terminus of the peptide

Assays:
[1] = molecular target: N-CoRNID labelled with Atto647N (mouse) (UniProt Q60974); assay: MST
[2] = molecular target: N-CoRNID, nuclear receptor interaction domain of N-CoR (Gln2059 to Glu2325) (mouse) (UniProt Q60974); assay: AUC + other: RPLC-UV/MS
[3] = molecular target: N-CoRNID labelled with Atto647N (mouse) (UniProt Q60974); assay: MST; remark: listed apart in the source
[4] = molecular target: N-CoRNID, nuclear receptor interaction domain of N-CoR (Gln2059 to Glu2325) (mouse) (UniProt Q60974); assay: SAXS
[5] = molecular target: fluorescent peptide CoRNR1 of N-CoR; assay: fluorescence polarisation
[6] = molecular target: fluorescent peptide CoRNR2 of N-CoR; assay: fluorescence polarisation
[7] = molecular target: T1, RXR (RXRα ligand-binding domain) (mouse, UniProt P28700 227-467); assay: fluorescence polarisation
T1 sequence (looked up): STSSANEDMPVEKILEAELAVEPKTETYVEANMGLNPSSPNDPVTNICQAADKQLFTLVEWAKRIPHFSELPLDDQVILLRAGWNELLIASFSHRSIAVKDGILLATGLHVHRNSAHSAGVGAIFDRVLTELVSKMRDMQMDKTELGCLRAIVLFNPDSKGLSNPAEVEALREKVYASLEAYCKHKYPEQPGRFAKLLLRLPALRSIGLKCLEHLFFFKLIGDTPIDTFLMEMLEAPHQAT

[8] = molecular target: T1, RXR (RXRα ligand-binding domain); assay: AUC + other: RPLC-UV/MS

Sequence of N-CoRNID labelled with Atto647N (mouse) (Q60974 2059-2325): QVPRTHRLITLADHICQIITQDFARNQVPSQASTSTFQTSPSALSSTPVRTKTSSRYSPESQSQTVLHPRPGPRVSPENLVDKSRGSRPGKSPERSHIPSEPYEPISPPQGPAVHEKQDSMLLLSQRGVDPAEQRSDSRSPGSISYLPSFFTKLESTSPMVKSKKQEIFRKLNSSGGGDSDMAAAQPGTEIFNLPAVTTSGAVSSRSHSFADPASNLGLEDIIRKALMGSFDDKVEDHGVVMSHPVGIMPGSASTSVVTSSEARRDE
Sequence of N-CoRNID, nuclear receptor interaction domain of N-CoR (Gln2059 to Glu2325) (mouse) (Q60974 2059-2325): as above

Kd [1]: 8.6 µM
stoichiometry N [2]: 1
Kd [3]: 210 nM
population of unbound species [4]: 51%
Kd [5]: 1680 nM
Kd [6]: 1470 nM
Molecule: RXR/RAR heterodimer (mRXRα/hRARα), ligand-binding domains (from UniProt P28700 1-467; P10276 1-462) (complex)

Kd [3]: 4420 nM
Molecule: RXR/RARI396E heterodimer (mRXRα/hRARαI396E) (from UniProt P28700 1-467; P10276 1-462) (complex)

Kd [7]: 22.5 µM
B1: fluorescent peptide CoRNR2 of N-CoR (peptide)
peptide: fluorescein-DPASNLGLEDIIRKALMGSFD

stoichiometry N [8]: 1
B2: RAR (RARα ligand-binding domain) (domain or fragment, human, UniProt P10276 176-421, looked up)
chain: ESYTLTPEVGELIEKVRKAHQETFPALCQLGKYTTNNSSEQRVSLDIDLWDKFSELSTKCIIKTVEFAKQLPGFTTLTIADQITLLKAACLDILILRICTRYTPEQDTMTFSDGLTLNRTQMHNAGFGPLTDLVFAFANQLLPLEMDDAETGLLSAICLICGDRQDLEQPDRVDMLQEPLLEALKVYVRKRRPSRPHMFPKMLMKITDLRSISAKGAERVITLKMEIPGSMPPLIQEMLENSEGLD
